# Reference: paper PMC9482650, “Quantitative fragmentomics allow affinity mapping of interactomes” (Nature Communications, 2022)
# T1: DVL1, O14640
# T1 sequence (O14640 246-333, limits assumed, looked up): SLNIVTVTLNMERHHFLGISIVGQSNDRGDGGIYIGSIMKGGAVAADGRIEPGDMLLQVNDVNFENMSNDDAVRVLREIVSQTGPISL
# T2: SHROOM3, Q8TF72
# T2 sequence (Q8TF72 20-120, limits assumed, looked up): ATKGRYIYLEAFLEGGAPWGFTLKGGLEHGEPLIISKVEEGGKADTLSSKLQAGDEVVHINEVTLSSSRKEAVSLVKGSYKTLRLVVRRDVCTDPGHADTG
# T3: PDZD7_1, Q9H5P4
# T3 sequence (Q9H5P4 81-178, limits assumed, looked up): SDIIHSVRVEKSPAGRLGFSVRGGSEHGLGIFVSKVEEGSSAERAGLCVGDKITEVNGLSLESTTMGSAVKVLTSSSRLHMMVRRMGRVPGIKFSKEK
# T4: MPDZ_2, O75970
# T4 sequence (O75970 252-347, limits assumed, looked up): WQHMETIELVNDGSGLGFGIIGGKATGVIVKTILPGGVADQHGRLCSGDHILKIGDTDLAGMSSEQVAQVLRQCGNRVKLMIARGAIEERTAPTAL
# T5: MPP5, Q8N3R9
# T5 sequence (Q8N3R9 251-346, limits assumed, looked up): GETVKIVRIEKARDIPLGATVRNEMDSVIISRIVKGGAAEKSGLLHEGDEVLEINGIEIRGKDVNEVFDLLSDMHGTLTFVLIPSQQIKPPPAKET
# T6: SHANK2, Q9UPX8
# T6 sequence (Q9UPX8 621-730, limits assumed, looked up): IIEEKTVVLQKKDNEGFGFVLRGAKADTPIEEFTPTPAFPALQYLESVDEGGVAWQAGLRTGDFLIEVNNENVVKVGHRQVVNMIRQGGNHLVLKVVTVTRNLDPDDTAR
# T7: RGS12, O14924
# T7 sequence (O14924 17-108, limits assumed, looked up): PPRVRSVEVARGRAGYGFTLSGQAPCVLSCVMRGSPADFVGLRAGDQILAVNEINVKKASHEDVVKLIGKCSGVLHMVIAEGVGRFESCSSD
# T8: SHROOM4, Q9ULL8
# T8 sequence (Q9ULL8 5-102, limits assumed, looked up): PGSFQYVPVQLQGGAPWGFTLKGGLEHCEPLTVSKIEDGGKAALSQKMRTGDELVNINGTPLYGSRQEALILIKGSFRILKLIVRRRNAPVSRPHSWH
# T9: MAGI2_1, Q86UL8
# T9 sequence (Q86UL8 12-111, limits assumed, looked up): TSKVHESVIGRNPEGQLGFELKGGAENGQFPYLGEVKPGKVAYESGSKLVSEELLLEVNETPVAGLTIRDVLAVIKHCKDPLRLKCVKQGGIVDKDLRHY
# T10: MPDZ_12, O75970
# T10 sequence (O75970 1857-1958, limits assumed, looked up): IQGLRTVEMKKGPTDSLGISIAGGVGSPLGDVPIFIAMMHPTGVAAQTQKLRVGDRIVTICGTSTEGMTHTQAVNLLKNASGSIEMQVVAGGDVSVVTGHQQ
# T11: INTU, Q9ULD6
# T11 sequence (Q9ULD6 180-273, limits assumed, looked up): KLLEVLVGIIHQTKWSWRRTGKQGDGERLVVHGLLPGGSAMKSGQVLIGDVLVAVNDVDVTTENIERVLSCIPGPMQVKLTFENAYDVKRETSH
# T12: PCLO, Q9Y6V0
# T12 sequence (Q9Y6V0 4491-4600, limits assumed, looked up): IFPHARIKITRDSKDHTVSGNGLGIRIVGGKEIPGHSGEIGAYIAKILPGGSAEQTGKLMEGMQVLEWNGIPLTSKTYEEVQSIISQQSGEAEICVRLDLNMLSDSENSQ
# Biological target: MAST3, O60307
# Sequence (O60307 945-1048): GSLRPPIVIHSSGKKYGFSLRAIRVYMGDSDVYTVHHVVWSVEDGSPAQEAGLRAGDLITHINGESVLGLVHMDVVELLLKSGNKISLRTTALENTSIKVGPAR
# Assay: holdup assay
# Set-up: key: below the threshold = too weak to quantify, mostly under pKd 3.1 to 4
# Settings: plain residues with an end cap or a label only (N-terminal biotin on a linker: ttds)
row,Binder,pKd
1,"RHTTSTETAV [HPV30-E6, P36809]",below the threshold
2,"RLQRRRETQV [HPV18-E6, P06463]",below the threshold

# Biological target: T1, DVL1, O14640
# Assay: holdup assay
# Set-up: key: below the threshold = too weak to quantify, mostly under pKd 3.1 to 4
# Settings: plain residues with an end cap or a label only (N-terminal biotin on a linker: ttds)
row,Binder,pKd
1,"RHTTSTETAV [HPV30-E6, P36809]",below the threshold
2,"RLQRRRETQV [HPV18-E6, P06463]",below the threshold

# Biological target: T2, SHROOM3, Q8TF72
# Assay: holdup assay
# Set-up: key: below the threshold = too weak to quantify, mostly under pKd 3.1 to 4
# Settings: plain residues with an end cap or a label only (N-terminal biotin on a linker: ttds)
row,Binder,pKd
1,"RHTTSTETAV [HPV30-E6, P36809]",below the threshold
2,"RLQRRRETQV [HPV18-E6, P06463]",below the threshold

# Biological target: PARD3_1, Q8TEW0
# Sequence (Q8TEW0 264-372): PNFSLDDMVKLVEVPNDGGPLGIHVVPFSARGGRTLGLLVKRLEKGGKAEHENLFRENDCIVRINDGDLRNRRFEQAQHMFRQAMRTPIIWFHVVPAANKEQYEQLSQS
# Assay: holdup assay
# Set-up: key: below the threshold = too weak to quantify, mostly under pKd 3.1 to 4
# Settings: plain residues with an end cap or a label only (N-terminal biotin on a linker: ttds)
row,Binder,pKd
1,"RHTTSTETAV [HPV30-E6, P36809]",below the threshold
2,"RLQRRRETQV [HPV18-E6, P06463]",below the threshold

# Biological target: PDZD9, Q8IXQ8
# Sequence (Q8IXQ8 23-120): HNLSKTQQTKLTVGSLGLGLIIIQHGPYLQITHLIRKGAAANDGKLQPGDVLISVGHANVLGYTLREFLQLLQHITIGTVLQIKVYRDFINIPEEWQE
# Assay: holdup assay
# Set-up: key: below the threshold = too weak to quantify, mostly under pKd 3.1 to 4
# Settings: plain residues with an end cap or a label only (N-terminal biotin on a linker: ttds)
row,Binder,pKd
1,"RHTTSTETAV [HPV30-E6, P36809]",below the threshold
2,"RLQRRRETQV [HPV18-E6, P06463]",below the threshold

# Biological target: LIMK1, P53667
# Sequence (P53667 155-268): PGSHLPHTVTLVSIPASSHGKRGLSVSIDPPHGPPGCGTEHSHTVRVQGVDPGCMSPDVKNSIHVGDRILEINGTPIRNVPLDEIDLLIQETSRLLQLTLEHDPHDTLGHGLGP
# Assay: holdup assay
# Set-up: key: below the threshold = too weak to quantify, mostly under pKd 3.1 to 4
# Settings: plain residues with an end cap or a label only (N-terminal biotin on a linker: ttds)
row,Binder,pKd
1,"RHTTSTETAV [HPV30-E6, P36809]",below the threshold
2,"RLQRRRETQV [HPV18-E6, P06463]",below the threshold

# Biological target: T3, PDZD7_1, Q9H5P4
# Assay: holdup assay
# Set-up: key: below the threshold = too weak to quantify, mostly under pKd 3.1 to 4
# Settings: plain residues with an end cap or a label only (N-terminal biotin on a linker: ttds)
row,Binder,pKd
1,"RHTTSTETAV [HPV30-E6, P36809]",below the threshold
2,"RLQRRRETQV [HPV18-E6, P06463]",below the threshold

# Biological target: SCRIB_4, Q14160
# Sequence (Q14160 1095-1204): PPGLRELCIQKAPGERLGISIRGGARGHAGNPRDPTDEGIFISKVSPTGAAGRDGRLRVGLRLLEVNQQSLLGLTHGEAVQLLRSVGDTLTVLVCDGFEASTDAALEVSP
# Assay: holdup assay
# Set-up: key: below the threshold = too weak to quantify, mostly under pKd 3.1 to 4
# Settings: plain residues with an end cap or a label only (N-terminal biotin on a linker: ttds)
row,Binder,pKd
1,"RHTTSTETAV [HPV30-E6, P36809]",4.59
2,"RLQRRRETQV [HPV18-E6, P06463]",below the threshold

# Biological target: MAGI3_3, Q5TCQ9
# Sequence (Q5TCQ9 572-655): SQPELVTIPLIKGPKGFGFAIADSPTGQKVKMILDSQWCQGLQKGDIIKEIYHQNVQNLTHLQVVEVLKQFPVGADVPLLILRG
# Assay: holdup assay
# Set-up: key: below the threshold = too weak to quantify, mostly under pKd 3.1 to 4
# Settings: plain residues with an end cap or a label only (N-terminal biotin on a linker: ttds)
row,Binder,pKd
1,"RHTTSTETAV [HPV30-E6, P36809]",below the threshold
2,"RLQRRRETQV [HPV18-E6, P06463]",below the threshold

# Biological target: RGS3, P49796-9
# Sequence (P49796 other isoform, or with tags, fused parts or gaps): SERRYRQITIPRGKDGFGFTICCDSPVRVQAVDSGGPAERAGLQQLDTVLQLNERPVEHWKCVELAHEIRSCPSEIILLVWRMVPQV
# Assay: holdup assay
# Set-up: key: below the threshold = too weak to quantify, mostly under pKd 3.1 to 4
# Settings: plain residues with an end cap or a label only (N-terminal biotin on a linker: ttds)
row,Binder,pKd
1,"RHTTSTETAV [HPV30-E6, P36809]",below the threshold
2,"RLQRRRETQV [HPV18-E6, P06463]",below the threshold

# Biological target: Inadl_7, Q8NI35
# Sequence (Q8NI35 1219-1332): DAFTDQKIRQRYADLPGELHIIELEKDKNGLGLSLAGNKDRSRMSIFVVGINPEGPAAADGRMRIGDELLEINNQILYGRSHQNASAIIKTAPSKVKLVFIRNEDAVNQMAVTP
# Assay: holdup assay
# Set-up: key: below the threshold = too weak to quantify, mostly under pKd 3.1 to 4
# Settings: plain residues with an end cap or a label only (N-terminal biotin on a linker: ttds)
row,Binder,pKd
1,"RHTTSTETAV [HPV30-E6, P36809]",below the threshold
2,"RLQRRRETQV [HPV18-E6, P06463]",below the threshold

# Biological target: GRIP2_2, Q9C0E4
# Sequence (Q9C0E4 137-245): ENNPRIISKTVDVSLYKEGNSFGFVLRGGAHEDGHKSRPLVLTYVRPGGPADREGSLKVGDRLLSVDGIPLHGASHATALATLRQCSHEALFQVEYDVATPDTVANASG
# Assay: holdup assay
# Set-up: key: below the threshold = too weak to quantify, mostly under pKd 3.1 to 4
# Settings: plain residues with an end cap or a label only (N-terminal biotin on a linker: ttds)
row,Binder,pKd
1,"RHTTSTETAV [HPV30-E6, P36809]",below the threshold
2,"RLQRRRETQV [HPV18-E6, P06463]",4.48

# Biological target: T4, MPDZ_2, O75970
# Assay: holdup assay
# Set-up: key: below the threshold = too weak to quantify, mostly under pKd 3.1 to 4
# Settings: plain residues with an end cap or a label only (N-terminal biotin on a linker: ttds)
row,Binder,pKd
1,"RHTTSTETAV [HPV30-E6, P36809]",below the threshold
2,"RLQRRRETQV [HPV18-E6, P06463]",below the threshold

# Biological target: TJP1_3, Q07157
# Sequence (Q07157 416-512): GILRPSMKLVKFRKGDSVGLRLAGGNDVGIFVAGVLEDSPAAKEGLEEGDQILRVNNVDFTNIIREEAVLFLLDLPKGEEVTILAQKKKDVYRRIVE
# Assay: holdup assay
# Set-up: key: below the threshold = too weak to quantify, mostly under pKd 3.1 to 4
# Settings: plain residues with an end cap or a label only (N-terminal biotin on a linker: ttds)
row,Binder,pKd
1,"RHTTSTETAV [HPV30-E6, P36809]",below the threshold
2,"RLQRRRETQV [HPV18-E6, P06463]",below the threshold

# Biological target: NHERF4_3, Q86UT5
# Sequence (Q86UT5 325-412): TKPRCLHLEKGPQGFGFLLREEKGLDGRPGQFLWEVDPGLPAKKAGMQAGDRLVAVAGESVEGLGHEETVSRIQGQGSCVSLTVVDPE
# Assay: holdup assay
# Set-up: key: below the threshold = too weak to quantify, mostly under pKd 3.1 to 4
# Settings: plain residues with an end cap or a label only (N-terminal biotin on a linker: ttds)
row,Binder,pKd
1,"RHTTSTETAV [HPV30-E6, P36809]",below the threshold
2,"RLQRRRETQV [HPV18-E6, P06463]",below the threshold

# Biological target: T5, MPP5, Q8N3R9
# Assay: holdup assay
# Set-up: key: below the threshold = too weak to quantify, mostly under pKd 3.1 to 4
# Settings: plain residues with an end cap or a label only (N-terminal biotin on a linker: ttds)
row,Binder,pKd
1,"RHTTSTETAV [HPV30-E6, P36809]",below the threshold
2,"RLQRRRETQV [HPV18-E6, P06463]",below the threshold

# Biological target: T6, SHANK2, Q9UPX8
# Assay: holdup assay
# Set-up: key: below the threshold = too weak to quantify, mostly under pKd 3.1 to 4
# Settings: plain residues with an end cap or a label only (N-terminal biotin on a linker: ttds)
row,Binder,pKd
1,"RHTTSTETAV [HPV30-E6, P36809]",below the threshold
2,"RLQRRRETQV [HPV18-E6, P06463]",below the threshold

# Biological target: T7, RGS12, O14924
# Assay: holdup assay
# Set-up: key: below the threshold = too weak to quantify, mostly under pKd 3.1 to 4
# Settings: plain residues with an end cap or a label only (N-terminal biotin on a linker: ttds)
row,Binder,pKd
1,"RHTTSTETAV [HPV30-E6, P36809]",below the threshold
2,"RLQRRRETQV [HPV18-E6, P06463]",4.35

# Biological target: T8, SHROOM4, Q9ULL8
# Assay: holdup assay
# Set-up: key: below the threshold = too weak to quantify, mostly under pKd 3.1 to 4
# Settings: plain residues with an end cap or a label only (N-terminal biotin on a linker: ttds)
row,Binder,pKd
1,"RHTTSTETAV [HPV30-E6, P36809]",4.73
2,"RLQRRRETQV [HPV18-E6, P06463]",below the threshold

# Biological target: T9, MAGI2_1, Q86UL8
# Assay: holdup assay
# Set-up: key: below the threshold = too weak to quantify, mostly under pKd 3.1 to 4
# Settings: plain residues with an end cap or a label only (N-terminal biotin on a linker: ttds)
row,Binder,pKd
1,"RHTTSTETAV [HPV30-E6, P36809]",below the threshold
2,"RLQRRRETQV [HPV18-E6, P06463]",below the threshold

# Biological target: T10, MPDZ_12, O75970
# Assay: holdup assay
# Set-up: key: below the threshold = too weak to quantify, mostly under pKd 3.1 to 4
# Settings: plain residues with an end cap or a label only (N-terminal biotin on a linker: ttds)
row,Binder,pKd
1,"RHTTSTETAV [HPV30-E6, P36809]",below the threshold
2,"RLQRRRETQV [HPV18-E6, P06463]",below the threshold

# Biological target: MAGI3_5, Q5TCQ9
# Sequence (Q5TCQ9 847-941): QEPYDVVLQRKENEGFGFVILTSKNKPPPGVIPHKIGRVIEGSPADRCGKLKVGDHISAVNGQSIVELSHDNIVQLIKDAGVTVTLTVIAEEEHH
# Assay: holdup assay
# Set-up: key: below the threshold = too weak to quantify, mostly under pKd 3.1 to 4
# Settings: plain residues with an end cap or a label only (N-terminal biotin on a linker: ttds)
row,Binder,pKd
1,"RHTTSTETAV [HPV30-E6, P36809]",below the threshold
2,"RLQRRRETQV [HPV18-E6, P06463]",below the threshold

# Biological target: T11, INTU, Q9ULD6
# Assay: holdup assay
# Set-up: key: below the threshold = too weak to quantify, mostly under pKd 3.1 to 4
# Settings: plain residues with an end cap or a label only (N-terminal biotin on a linker: ttds)
row,Binder,pKd
1,"RHTTSTETAV [HPV30-E6, P36809]",below the threshold
2,"RLQRRRETQV [HPV18-E6, P06463]",below the threshold

# Biological target: T12, PCLO, Q9Y6V0
# Assay: holdup assay
# Set-up: key: below the threshold = too weak to quantify, mostly under pKd 3.1 to 4
# Settings: plain residues with an end cap or a label only (N-terminal biotin on a linker: ttds)
row,Binder,pKd
1,"RHTTSTETAV [HPV30-E6, P36809]",below the threshold
2,"RLQRRRETQV [HPV18-E6, P06463]",below the threshold
